Test results published in patent publication US20240425569A1 (VISTERRA, published 2024).

Experiments:
[1] = biological target: T1, Singapore/2009 (serotype III EDIII)
T1 construct: also called ED3-DV3/Sing09; DENV-3 Sing
T1 E protein domain III (EDIII): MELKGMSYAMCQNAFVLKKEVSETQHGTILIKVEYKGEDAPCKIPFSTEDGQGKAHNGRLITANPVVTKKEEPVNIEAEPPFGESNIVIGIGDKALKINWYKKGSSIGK

[2] = biological target: T2, EDIII-DV4 (E protein domain III of dengue virus serotype DV-4) (dengue virus serotype DV-4, UniProt P09866 572-679); assay: competition ELISA; column 'EDIII-DV4'
T2 construct: also called DENV-4

[3] = biological target: T3, Mexico/1977 (BC287/97)* (serotype IV EDIII) (Dengue virus 4); assay: Kd table, method not stated; Ag DENV-4 BC2
T3 construct: isolated EDIII protein; also called EDIII of DENV-4 Mexico/1997 (BC287/97); DENV-4 BC2

[4] = biological target: T4, Malaysia/2005 (serotype I EDIII)
T4 construct: also called ED3-DV1/Malaysia05
T4 E protein domain III (EDIII): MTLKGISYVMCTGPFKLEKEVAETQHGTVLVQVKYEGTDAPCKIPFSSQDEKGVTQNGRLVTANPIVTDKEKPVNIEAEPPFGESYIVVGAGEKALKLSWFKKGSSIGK

[5] = biological target: T5, Singapore/2010 (serotype IV EDIII); assay: Kd table, method not stated; Ag DENV-4 Sing
T5 construct: also called ED3-DV4/Sing10; DENV-4 Sing
T5 E protein domain III (EDIII): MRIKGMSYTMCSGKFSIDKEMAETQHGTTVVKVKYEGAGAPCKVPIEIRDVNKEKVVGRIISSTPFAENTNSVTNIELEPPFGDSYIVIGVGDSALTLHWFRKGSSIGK

[6] = biological target: T6, Cambodia/2008 (serotype III EDIII); assay: ELISA; row Cambodia/2008, serotype III, genotype II
T6 construct: Genotype II; also called ED3-DV3/Cambodia08
T6 E protein domain III (EDIII): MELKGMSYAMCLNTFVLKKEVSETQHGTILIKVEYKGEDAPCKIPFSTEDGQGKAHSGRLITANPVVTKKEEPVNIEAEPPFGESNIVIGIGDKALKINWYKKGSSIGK

[7] = biological target: T7, New Guinea/1944 (NGC)* (serotype II EDIII) (Dengue virus 2); assay: ELISA; row New Guinea/1944 (NGC)*, serotype II, genotype Asian I
T7 construct: isolated EDIII protein; also called EDIII of DENV-2 NGC
T7 sequence (P14340 578-673): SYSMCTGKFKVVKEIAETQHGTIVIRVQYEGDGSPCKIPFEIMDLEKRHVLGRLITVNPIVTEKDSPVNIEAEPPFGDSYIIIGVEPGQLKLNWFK

[8] = biological target: T8, New Caledonia/2009 (serotype IV EDIII); assay: Kd table, method not stated; Ag DENV-4 NC
T8 construct: also called ED3-DV4/NewCal09; DENV-4 NC
T8 E protein domain III (EDIII): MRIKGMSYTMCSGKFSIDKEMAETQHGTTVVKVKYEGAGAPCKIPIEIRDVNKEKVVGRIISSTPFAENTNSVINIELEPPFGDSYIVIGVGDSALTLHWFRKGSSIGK

[9] = biological target: T9, Mexico/2007 (serotype I EDIII)
T9 construct: also called ED3-DV1/Mexico07
T9 E protein domain III (EDIII): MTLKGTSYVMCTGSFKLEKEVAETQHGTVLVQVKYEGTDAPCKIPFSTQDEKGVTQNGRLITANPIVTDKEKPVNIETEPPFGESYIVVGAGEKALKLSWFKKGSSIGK

[10] = biological target: T10, Thailand/1997 (serotype IV EDIII); assay: SPR; row Thailand/1997, serotype IV, genotype III
T10 E protein domain III (EDIII): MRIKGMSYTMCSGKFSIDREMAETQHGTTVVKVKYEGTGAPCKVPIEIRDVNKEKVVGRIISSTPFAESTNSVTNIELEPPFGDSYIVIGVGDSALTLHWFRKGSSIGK

[11] = biological target: ED3-DV4/H241/Phil56 (EDIII of DENV-4 strain H241) (dengue virus serotype DENV-4, strain …, UniProt Q58HT7 572-679)
[12] = biological target: T11, Venezuela/2007 (serotype II EDIII); assay: ELISA; row Venezuela/2007, serotype II, genotype SE-Asian/American
T11 construct: also called ED3-DV2/Venezuela07
T11 E protein domain III (EDIII): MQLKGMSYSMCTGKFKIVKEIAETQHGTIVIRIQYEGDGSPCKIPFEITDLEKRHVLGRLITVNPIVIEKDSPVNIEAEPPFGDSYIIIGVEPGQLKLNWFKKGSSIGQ

[13] = biological target: T12, Venezuela/2008 (serotype IV EDIII); assay: ELISA; row Venezuela/2008, serotype IV, genotype IIa
T12 E protein domain III (EDIII): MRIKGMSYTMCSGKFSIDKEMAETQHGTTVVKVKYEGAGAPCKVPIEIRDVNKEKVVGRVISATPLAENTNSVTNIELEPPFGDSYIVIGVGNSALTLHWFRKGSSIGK

[14] = biological target: T13, Peru/1995 (serotype II EDIII); assay: SPR; row Peru/1995, serotype II, genotype American
T13 construct: also called ED3-DV2/Peru95; DENV-2 Peru

[15] = biological target: T5, Singapore/2010 (serotype IV EDIII); assay: ELISA; row Singapore/2010, serotype IV, genotype IIb
[16] = biological target: T14, Vietnam/2008 (serotype I EDIII)
T14 construct: also called ED3-DV1/Viet08
T14 E protein domain III (EDIII): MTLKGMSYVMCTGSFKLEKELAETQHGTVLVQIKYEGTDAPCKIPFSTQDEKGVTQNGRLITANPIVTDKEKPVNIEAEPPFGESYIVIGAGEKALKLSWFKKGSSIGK

[17] = biological target: T12, Venezuela/2008 (serotype IV EDIII); assay: SPR; row Venezuela/2008, serotype IV, genotype IIa
[18] = biological target: T6, Cambodia/2008 (serotype III EDIII); assay: SPR; row Cambodia/2008, serotype III, genotype II
[19] = biological target: T15, Singapore/2008 (serotype II EDIII); assay: Kd table, method not stated; Ag DENV-2 Sing
T15 construct: also called ED3-DV2/Sing08; DENV-2 Sing

B1: antibody D88 (antibody, V domains shown)
VH: QVQLVQSGAEVKKPGASVKVSCKAGFNIKDVYMSWVRQAPEQGLEWMGRIDPENGDTKYDPKLQGRVTMTADTSTNTAYMELRSLRSDDTAVYYCARGWEGFAYWGQGTLVTVSS
VL: DIVMTQSPASLAVSLGERATISCRASENVDKYGNSFMHWYQQKPGQPPKLLIYRASELQWGVPDRFSGSGSGTDFTLTISSLQAEDVAVYYCQRSNEVPWTFGQGTKLEIK
notes: also called mAb D88
Kd [1]: 0.35 nM
Kd [2]: 6.12 nM
Kd [3]: 7.2 nM
Kd [4]: < 0.1 nM
Kd [5]: 8.4 nM
Kd [6]: 1.32 nM
Kd [7]: < 0.1 nM
Kd [8]: 10.8 nM
Kd [9]: 0.071 nM
Kd [10]: > 300 nM
Kd [11]: 100 nM
Kd [12]: < 0.1 nM
Kd [13]: 4.5 nM
Kd [14]: 0.012 nM
Kd [15]: 8.43 nM
Kd [16]: < 0.1 nM
Kd [17]: 3.03 nM
Kd [18]: 2.47 nM
Kd [19]: < 0.1 nM
